The target in experiment [1] is SARS-CoV-2 receptor binding domain (RBD) (SARS-CoV-2) (UniProt P0DTC2). Nature of the experiment: ELISA. (In general: In an ELISA, binding on a coated surface is turned into a signal by an enzyme label.)
Another experiment concerns the target MERS CoV S1 (MERS CoV) (UniProt K9N5Q8). Briefly: ELISA.
In another experiment the target is SARS CoV RBD (SARS-CoV) (UniProt P59594). Nature of the experiment: ELISA.
Experiment [2] has as its target SARS-CoV-2 receptor binding domain (RBD) (SARS-CoV-2) (UniProt P0DTC2). Nature of the experiment: ELISA. This is another data set of the same source.
In the next experiment the target is HCoV-229E S1 (HCoV-229E) (UniProt P15423). Briefly: ELISA.
A further experiment deals with HCoV-NL63 S1 (HCoV-NL63) (UniProt Q6Q1S2). Briefly: ELISA.
Experiment [3] has as its target SARS-CoV-2 spike S1 (SARS-CoV-2) (UniProt P0DTC2). Nature of the experiment: ELISA.
The target in experiment [4] is SARS-CoV-2 spike on GFP reporter pseudotype virus (Wuhan-Hu-1) (SARS-CoV-2) (UniProt P0DTC2). Nature of the experiment: cell-based or functional assay.
Experiment [5] has as its target SARS-CoV-2 receptor binding domain (RBD) (SARS-CoV-2) (UniProt P0DTC2). Briefly: RBD:ACE2 blocking ELISA (RBD coated, ACE2-His).

These results are taken from patent publication US20220041715A1.

Like-named read-outs stand apart in the source and are kept apart here.

With IVIG (Gamunex; Grifols) (antibody), the EC50 (as a rule, the concentration that produces a half-maximal response) turned out to be 1250 µg/mL in [1]; 1330 µg/mL with MERS CoV S1 (MERS CoV); 1280 µg/mL in the experiment with SARS CoV RBD (SARS-CoV); 1270 µg/mL in experiment [2]; 96 µg/mL with HCoV-229E S1 (HCoV-229E); 140 µg/mL with HCoV-NL63 S1 (HCoV-NL63). This substance gave an EC50 in experiment [3] of 1410 µg/mL. The figures for the peak OD signal in experiment [2] and in experiment [3] were 2.26 OD and 1.99 OD, respectively.
Substance “rCIG (recombinant coronavirus-2 immune globulin; recombinant anti-coronavirus 19 hyperimmune gammaglobulin) (antibody)” showed a CoV-2 pseudotype neutralization IC50 in experiment [4] of 0.43 µg/mL. The IC50 (in general, the concentration at which inhibition is half-maximal) in [5] came out at 2.2 µg/mL. Further, the EC50 came out at 0.6 µg/mL with SARS CoV RBD (SARS-CoV), 0.1 µg/mL in experiment [2] and 0.092 µg/mL in experiment [3].
